The results in this text go back to US20230256092A1 (SHIONOGI, published 2023).

Changes are numbered by the printed parent chain. Numbers in names are those of the source. Where two headings read alike, the source gives them in different places.

In assay [1] the target is T1, human CCR8 (human, UniProt P51685 1-355). The assay is described as follows: cell-based or functional assay.
In assay [2] the target is T1, human CCR8. Briefly: cell-based or functional assay. The source holds these as a separate data set.
Assay [3] concerns the target T1, human CCR8. Briefly: cell-based or functional assay. This is another data set of the same source.
For assay [4], the target named is T1, human CCR8. Briefly: cell-based or functional assay. This is another data set of the same source.
A further assay has as its target T2, hCCR8 (Y17A) (human, UniProt P51685 1-355).
T2 construct: also called mutant in which Y at position 17 of human CCR8 is substituted for A
Briefly: flow cytometry on Expi293 transfectants.

The next assay has as its target T3, human CCR4 (human, UniProt P51679 1-360).
T3 construct: full length, on Expi293 cells; also called hCCR4
T3 sequence: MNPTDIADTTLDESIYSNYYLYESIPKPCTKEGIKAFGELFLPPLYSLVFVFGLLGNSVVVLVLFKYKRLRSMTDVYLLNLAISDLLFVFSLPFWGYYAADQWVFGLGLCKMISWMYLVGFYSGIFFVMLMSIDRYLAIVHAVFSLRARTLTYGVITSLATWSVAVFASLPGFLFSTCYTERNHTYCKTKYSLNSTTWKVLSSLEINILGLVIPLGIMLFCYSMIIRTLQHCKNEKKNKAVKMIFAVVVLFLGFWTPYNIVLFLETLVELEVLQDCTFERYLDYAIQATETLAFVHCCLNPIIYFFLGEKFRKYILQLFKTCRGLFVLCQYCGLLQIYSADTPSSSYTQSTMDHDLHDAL
The assay is described as follows: flow cytometry on Expi293 transfectants. For orientation: Flow cytometry measures light scatter and fluorescence of single cells or particles in a stream.

A further assay deals with T4, mouse CCR8 (mouse, UniProt P56484 1-353).
T4 construct: full length, on Expi293 cells; also called mCCR8
T4 sequence: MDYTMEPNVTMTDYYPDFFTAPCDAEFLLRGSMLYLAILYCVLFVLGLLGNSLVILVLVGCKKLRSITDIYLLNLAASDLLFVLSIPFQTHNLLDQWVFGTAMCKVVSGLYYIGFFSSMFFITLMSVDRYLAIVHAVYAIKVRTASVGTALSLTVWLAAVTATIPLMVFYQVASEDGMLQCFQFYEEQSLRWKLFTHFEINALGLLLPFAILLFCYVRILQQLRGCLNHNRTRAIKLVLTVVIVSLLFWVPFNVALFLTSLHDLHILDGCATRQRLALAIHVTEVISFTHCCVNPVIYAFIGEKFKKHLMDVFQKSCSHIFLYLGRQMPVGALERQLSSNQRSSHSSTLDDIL
The assay is described as follows: flow cytometry on Expi293 transfectants.

A further assay has as its target T5, N-ter hCCR4-hCCR8 (human).
T5 construct: chimera on Expi293 cells; also called human CCR8 with the N-terminal region substituted with that of human CCR4
T5 chain: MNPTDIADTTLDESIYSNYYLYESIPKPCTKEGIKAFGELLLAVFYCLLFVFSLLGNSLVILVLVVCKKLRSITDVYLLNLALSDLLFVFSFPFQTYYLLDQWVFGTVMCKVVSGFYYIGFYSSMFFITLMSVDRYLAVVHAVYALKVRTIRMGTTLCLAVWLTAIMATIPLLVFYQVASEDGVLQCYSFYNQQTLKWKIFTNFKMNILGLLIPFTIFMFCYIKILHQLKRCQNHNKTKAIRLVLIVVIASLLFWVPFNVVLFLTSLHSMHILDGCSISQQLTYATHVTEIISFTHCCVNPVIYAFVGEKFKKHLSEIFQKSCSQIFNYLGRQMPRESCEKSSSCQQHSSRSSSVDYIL
The assay is described as follows: flow cytometry on Expi293 transfectants.

Another assay deals with T6, loop3 hCCR4-hCCR8 (human, UniProt P51685 1-355).
T6 construct: chimera on Expi293 cells; hCCR8 264-280 replaced
The assay is described as follows: FCM, Expi293 transfectants; blank cell = same binding activity as wild-type hCCR8.

For assay [5], the target named is T7, loop1 hCCR4-hCCR8 (human, UniProt P51685 1-355).
T7 construct: chimera on Expi293 cells; hCCR8 94-107 replaced; also called loop1-human CCR4-substituted human CCR8
Briefly: FCM, Expi293 transfectants; Δ = significantly reduced binding activity vs wild-type hCCR8.

The target in another assay is T8, loop2 hCCR4-hCCR8 (human, UniProt P51685 1-355).
T8 construct: chimera on Expi293 cells; hCCR8 172-202 replaced; also called loop2-human CCR4-substituted human CCR8
The assay is described as above.

Assay [6] addresses T7, loop1 hCCR4-hCCR8. Briefly: flow cytometry on Expi293 transfectants.

B1: h10A11 (IGKV3-20/IGHV3-15 T94R) (antibody, V domains shown)
VH: EVQLVESGGALVKPGGSLRLSCAASGFTFSTYALYWVRQAPGKGLEWVGRIRSKSNNYATYYADSVKDRFTISRDDSKNTLYLQMNSLKTEDTAVYYCTRARFYYSDYGYAMDYWGQGTLVTVSS
VL: EIVLTQSPGTLSLSPGERATLSCRSSKSLLHSNGNTYLYWYQQKPGQAPRLLIYRMSNLASGIPDRFSGSGSGTDFTLTISRLEPEDFAVYYCMQHLEYPLTFGQGTKVEIKR
Consider B1, for which the “IC50 (nM), Ca2+ influx by 200 nM hCCL1” value with human CCR8 [1] worked out at 0.16 nM.

B2: h10A11 (IGKV1-39/IGHV3-73) (antibody, V domains shown)
VH: B1 VH with A10G, K13Q, R19K, T28A, S30N, P41S, L81A
VL: DIQMTQSPSSLSASVGDRVTITCRSSKSLLHSNGNTYLYWYQQKPGKAPKLLIYRMSNLASGVPSRFSGSGSGTDFTLTISSLQPEDFATYYCMQHLEYPLTFGQGTKLEIKR
In the case of B2, the “IC50 (nM), Ca2+ influx by 200 nM hCCL1” value with human CCR8 [1] is 0.16 nM.

B3: humanized 10A11 antibody (light chain variable region: IGKV4-1 N53Q+G29R/heavy chain variable region: IGHV3-15 T94R) (antibody, V domains shown)
VH: B1 VH
VL: DIVMTQSPDSLAVSLGERATINCRSSKSLLHSNRNTYLYWYQQKPGQPPKLLIYRMSQLASGVPDRFSGSGSGTDFTLTISSLQAEDVAVYYCMQHLEYPLTFGQGTKLEIKR
Consider B3, for which the “IC50 (nM), Ca2+ influx by 200 nM hCCL1” value in the assay with human CCR8 [2] turned out to be 0.12 nM.

B4: humanized 10A11 mutant (IGKV3-20 N53Q, G29L/IGHV3-15 T94R) (antibody, V domains shown)
VH: B1 VH
VL: B1 VL with G34L, N58Q
For B4, the “IC50 (nM), Ca2+ influx by 200 nM hCCL1” value with human CCR8 [2] came out at 0.21 nM.

B5: h10A11 (IGKV1-16/IGHV3-15 T94R) (antibody, V domains shown)
VH: B1 VH
VL: B2 VL with Y41F, L51S
Consider B5, for which the “IC50 (nM), Ca2+ influx by 200 nM hCCL1” value in the assay with human CCR8 [1] is 0.7 nM.

B6: humanized 10A11 mutant (IGKV3-20 N53Q, N28K/IGHV3-15 T94R) (antibody, V domains shown)
VH: B1 VH
VL: B1 VL with N33K, N58Q
On to B6, for which the “IC50 (nM), Ca2+ influx by 200 nM hCCL1” value with human CCR8 [2] worked out at 0.29 nM.

B7: h10A11 (IGKV1-39/IGHV3-15 T94R) (antibody, V domains shown)
VH: B1 VH
VL: B2 VL
For B7, the “IC50 (nM), Ca2+ influx by 200 nM hCCL1” value with human CCR8 [1] came out at 0.2 nM.

B8: h10A11 (IGKV2-28/IGHV3-73) (antibody, V domains shown)
VH: B1 VH with A10G, K13Q, R19K, T28A, S30N, P41S, L81A
VL: DIVMTQSPLSLPVTPGEPASISCRSSKSLLHSNGNTYLYWYLQKPGQSPQLLIYRMSNLASGVPDRFSGSGSGTDFTLKISRVEAEDVGVYYCMQHLEYPLTFGQGTKVEIKR
Turning to B8, in the assay with human CCR8 [1], the “IC50 (nM), Ca2+ influx by 200 nM hCCL1” value stood at 0.2 nM.

B9: h10A11 (IGKV2-40/IGHV3-73) (antibody, V domains shown)
VH: B1 VH with A10G, K13Q, R19K, T28A, S30N, P41S, L81A
VL: B8 VL with S7T, V109L
For B9, the “IC50 (nM), Ca2+ influx by 200 nM hCCL1” value with human CCR8 [1] was determined as 0.21 nM.

B10: h10A11 (IGKV2-40/IGHV3-15 T94R) (antibody, V domains shown)
VH: B1 VH
VL: B8 VL with S7T, V109L
On to B10, for which, in the assay with human CCR8 [1], the “IC50 (nM), Ca2+ influx by 200 nM hCCL1” value came out at 0.3 nM.

B11: humanized 10A11 mutant (IGKV3-20 N53Q, G29R/IGHV3-15 T94R) (antibody, V domains shown)
VH: B1 VH
VL: B1 VL with G34R, N58Q
Turning to B11, the “IC50 (nM), Ca2+ influx by 200 nM hCCL1” value in the assay with human CCR8 [2] stood at 0.19 nM.

B12: 2-7B (antibody, V domains shown)
VH: EVQLVESDGGLVQPGRSLKLSCAASGFTFSDYYMAWVRQAPTKGLEWVATITYDVYSTYYRDSVKGRFTISRDNAKSTLYLQMDSLRSEDTATYYCARHGGDGYNSGNWFAYWGQGTLVTVSS
VL: DIVLTQSPALAVSLGQRATISCRASQSVSISRYNIMHWYQQKPGQQPKLLIYRASNLASGIPARFSGSGSGTDFTLTINPVQADDIATYYCQQSRESPPTFGGGTKLELKR
Consider B12, for which the “IC50 (nM), Ca2+ influx by 200 nM hCCL1” value in the assay with human CCR8 [3] was determined as 0.23 nM.

B13: 27G1 (antibody, V domains shown)
VH: EVQLVESGGRLVQPKGSLKLSCAASGFAFNTYAMYWIRQAPGKGLEWVARIRSKSNNYATYYADSVKDRFTISRDDSQSMLYLQMNNLKTEDTAMYYCVRARFYYSDYGYAMDYWGQGTSVTVSS
VL: DIVMTQAAPSVPVTPGESVSISCRSSKSLLHSNGNTYLYWFLQRPGQSPQLLIYRMSNLASGVPDRFSGSGSGTAFTLRISRVEAEDVGVYYCMQHLEYPLTFGAGTKLELKR
notes: mouse hybridoma antibody, purified
Regarding B13, the “Neutralizing activity IC50 (nM), Ca2+ influx by 100 nM hCCL1” value (shortened to “Neutralizing activity IC50 (nM)”) with human CCR8 [4] stood at 0.09 nM. The binding result with hCCR8 (Y17A) is “no binding”; in the assay with human CCR4, “no binding”; with mouse CCR8 it was “no binding”; in the assay with N-ter hCCR4-hCCR8, “no binding”; with loop3 hCCR4-hCCR8 it was “binds”; with loop1 hCCR4-hCCR8 [5], “binds”. For the same molecule, the binding result in the assay with loop2 hCCR4-hCCR8 is given as “binds”.

B14: 8F7 (antibody, V domains shown)
VH: EVQLVESGGRLVQPKRSLKLSCAASGFTFNPYAMYWIRQAPGQGLEWVARIRSKSNNYATYYADSVKDRFTISRDDSQSMLYLQMNNLKTEDTAMYYCVRGHQGTMDYWGQGTSVTVSS
VL: B13 VL with I53T, L101F, A105G, L111I
notes: as for B13
B14: the “Neutralizing activity IC50 (nM)” value with human CCR8 [4] worked out at 1.56 nM. Besides, the “IC50 (nM), Ca2+ influx by 200 nM hCCL1” value with human CCR8 [3] stood at 3.03 nM. The binding result with hCCR8 (Y17A) is recorded as “no binding”; with human CCR4 it was “no binding”; with mouse CCR8, “no binding”; with N-ter hCCR4-hCCR8 it was “no binding”; with loop1 hCCR4-hCCR8 [6], “no binding”; with loop3 hCCR4-hCCR8, “binds”. Also, the binding result with loop2 hCCR4-hCCR8 is on record as “binds”.

B15: 10A11 (antibody, V domains shown)
VH: B13 VH with M34L
VL: B13 VL
notes: mouse hybridoma antibody, purified; also called m10A11
Consider B15, for which the “Neutralizing activity IC50 (nM)” value with human CCR8 [4] came to 0.08 nM. The “IC50 (nM), Ca2+ influx by 200 nM hCCL1” value in the assay with human CCR8 [3] and with human CCR8 [1] was 0.23 nM each time. In addition, the binding result is recorded as “no binding” in the assay with hCCR8 (Y17A); “no binding” in the assay with human CCR4; “no binding” with mouse CCR8; “no binding” in the assay with N-ter hCCR4-hCCR8; “binds” with loop3 hCCR4-hCCR8; “binds” with loop1 hCCR4-hCCR8 [5]. Besides, in the assay with loop2 hCCR4-hCCR8, the binding result is “binds”.
